Data taken from PMC10149453, “Three segment ligation of a 104 kDa multi-domain protein by SrtA and OaAEP1” (Journal of Biomolecular Nmr, 2022).

Target: T1, Ncc ligated to ZHk (P. furiosus, UniProt P58301 1-386; P58301 390-497)
T1 construct: Rad50 of P. furiosus, aa 1-386 (from Ncc); OaAEP1 ligation scar; replaces the natural 'LGD' (N from Ncc, GL from the N-terminus of ZHk); Rad50 of P. furiosus, Zn Hook domain, aa 390-497 (from ZHk); The ZHk part is uniformly deuterated and ILVM side-chain methyl labelled (isotopes only); also called Ncc-ZHk; Ncc-ZnHk; source: OaAEP1 ligation of Ncc (E. coli) to ZHk (E. coli, deuterated minimal …)
T1 chain: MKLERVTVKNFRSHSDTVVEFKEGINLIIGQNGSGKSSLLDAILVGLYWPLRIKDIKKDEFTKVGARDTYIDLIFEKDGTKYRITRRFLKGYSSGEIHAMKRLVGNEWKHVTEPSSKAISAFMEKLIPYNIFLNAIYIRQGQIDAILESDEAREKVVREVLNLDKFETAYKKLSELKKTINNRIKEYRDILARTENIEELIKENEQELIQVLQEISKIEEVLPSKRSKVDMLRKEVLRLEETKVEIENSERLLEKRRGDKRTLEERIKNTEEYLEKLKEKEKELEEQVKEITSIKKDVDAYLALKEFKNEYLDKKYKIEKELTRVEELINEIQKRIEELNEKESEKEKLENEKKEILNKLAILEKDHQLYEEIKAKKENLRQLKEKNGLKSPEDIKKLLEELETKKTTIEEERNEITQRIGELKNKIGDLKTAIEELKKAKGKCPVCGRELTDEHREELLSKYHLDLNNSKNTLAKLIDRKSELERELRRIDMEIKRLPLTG
Assay: co-purification on a Ni affinity column; purified ligation mixture after TEV cleavage, separated on a HisTrap HP column; a 6His tag remains only on the C-terminus of ZHk in Ncc-ZHk; unreacted products in the flowthrough, target in the elution
Settings: both partners purified

binding result: binds
B1: Pf Rad50 C-Terminal coiled-coil-NBD (aa 503 – 882) after TEV cleavage (domain or fragment, P. furiosus)
chain: GTVAEQIRSIEEELNVVNLEKIEKNATEYEKLLEELRTLEGRIRGLAEDLKKLAPLEKKLAALIHKKQELEKELKELNTKLESFGFKSVEDLDSKLRELEEIYKRYLTLLNSKKELEITQREIAKAKETLEMSFEELAEVEADIERIEKKLSQLKQKYNEEEYKKKREEKEELEKELARLEAQKKELEKRRDTIKSTLEKLKAEKENRERVKKEIKDLEKAKDFTEELIEKVKKYKALAREAALSKIGELASEIFAEFTEGKYSEVVVRAEENKVRLFVVWEGKERPLTFLSGGERIALGLAFRLAMSLYLAGEISLLILDEPTPYLDEERRRKLITIMERYLKKIPQVILVSHDEELKDAADHVIRISLENGSSKVEVVS
notes: N-terminal Gly exposed by TEV cleavage; replaces residue 502 of Rad50; also called ccC; TEV-cleaved ccC; source: E. coli BL21 Codon+, co-expressed with Ncc, purified, tag removed with TEV protease; not shown: His6 (MK-HHHHHH-ENLYFQ, with TEV cleavage site), N-terminal, cleaved
